Test results as given in paper PMC10533564 (Communications Biology, 2023).

Legend:
[1] = biological target: T1, sTNFR2, monomeric extracellular domains of TNFR2 obtained from etanercept (Homo sapiens, UniProt P20333); experiment: SPR; antibody captured (~400 RU) on anti-human IgG Fc on a CM5 chip, sTNFR2 as analyte in twofold dilution series; PBS with 0.005% Tween 20, pH 7.4, 25 °C; 1:1 global kinetics fit; details: both partners purified
T1 construct: extracellular domains of TNFR2 as in etanercept; also called TNFR2 ECD; source: from etanercept (Pfizer): IdeS digestion, reduction with 2-mercaptoethylamine, purified (Protein A flow-through, SEC); not shown: Fc (human IgG1, of etanercept), C-terminal, cleaved

[2] = biological target: T2, tumor necrosis factor-alpha (TNFα) (UniProt P01375); experiment: SPR; TNFα immobilised on a CM5 chip by amine coupling (140 RU); antibodies 10 nM or 100 nM flowed; HBS-EP+, 25 °C; details: both partners purified
T2 construct: tumor necrosis factor-alpha; source: bought: Peprotech #AF-200-01A (named for the reporter assay)
T2 sequence (P01375 77-233): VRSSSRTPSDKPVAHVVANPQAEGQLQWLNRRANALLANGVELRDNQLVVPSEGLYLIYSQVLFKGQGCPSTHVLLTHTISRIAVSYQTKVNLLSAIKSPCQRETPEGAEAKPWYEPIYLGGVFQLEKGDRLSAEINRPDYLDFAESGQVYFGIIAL

B1: TR96 chimeric conventional IgG (antibody, V domains shown)
VH: EVQLQQSGAELVKPGASVKLSCTPSGFNIKDTYMHWVKQRPEQGLEWIGRIDPANGYTEYDPKFQDKATITADTSSNTAYLQLSSLTSEDTAVYYCADTQLYYWGQGTTLTVSS
VL: QIVLTQSPAIMSASLGERVTMTCTASSSVSSTYLHWYQQKPGSSPKLWIYSTSNLASGVPARFSGSGSGTSYSLTISNMEAEDAATYYCHQYHRSPLTFGAGTKLELK
- Kd [1]: 0.42 nM
- koff [1]: 0.00024 s⁻¹
- kon [1]: 580000 M⁻¹ s⁻¹

B2: TR109 chimeric conventional IgG (antibody, V domains shown)
VH: QVQLKESGPGLVAPSQSLSITCTVSGFSLTVYGVNWVRQPPGKGLEWLGMIWGDGSTAYNSALKSRLTITKDNSKTQVFLKMNSLQTDDTARYYCARDGRRYALDYWGQGTSVTVSS
VL: DIVLTQSPTSLAVSLGQRATISCRASESVDSYGDSFLHWYQQKPGQPPILLIYRASNLDSGIPARFSGSGSRTDFTLTINPVEADDVATYYCQQSNEDPYTFGGGTKLEIK
- Kd [1]: 5.6 nM

B3: TR45 chimeric conventional IgG (antibody, V domains shown)
VH: EVQLQQSGPEMEKPGASVKISCKASGYSFTGYNMNWVKQSIGKSLEWIGKIDPYYGGTDYNLRFKDKATLTVDKSSSTAYMHLSRLTSEDSAVYYCAREPNYGSNDWYFDVWGAGTTVTVSS
VL: DIQVTQTTSSLSASLGDRVTISCRASQDIDNYLNWYQQRPDGTVKLLIYYTSILHSGVPSRFSGSGSRTDFSLTISSLEEEDFATYFCQQGNTLPWTFGGGTKLEFK
- Kd [1]: 19 nM

B4: TR92 chimeric conventional IgG (antibody, V domains shown)
VH: KVQLQQSGAELVKPGASVKLSCKASGYTFTESIIHWVKQRSGQGLEWIGWFYPGSDNINYNEKFKDKATLTADKSSSTVYMELTRLTSEDSAVYFCASHEGPYVYFDYWGQGTTLTVSS
VL: DIVMTQSHKFMSTSVGDRVSITCKASQDVSTAVAWYQQKPGQSPKLLIYWTSTRHTGVPDRFTGSGSGTDYTLTISSVQAEDLALYYCQHHYSTPYTFGGGTKLEIQ
- Kd [1]: 4 nM

B5: TR45 cIgG (chimeric, human IgG1/kappa) (antibody, V domains shown)
VH: EVQLQQSGPEMEKPGASVKISCKASGYSFTGYNMNWVKQSIGKSLEWIGKIDPYYGGTDYNLRFKDKATLTVDKSSSTAYMHLSRLTSEDSAVYYCAREPNYGSNDWYFDVWGAGTTVTVSS
VL: DIQVTQTTSSLSASLGDRVTISCRASQDIDNYLNWYQQRPDGTVKLLIYYTSILHSGVPSRFSGSGSRTDFSLTISSLEEEDFATYFCQQGNTLPWTFGGGTKLEFK
- binding result [2]: no binding (tested: 10 nM or 100 nM)

B6: TR92 cIgG (chimeric, human IgG1/kappa) (antibody, V domains shown)
VH: KVQLQQSGAELVKPGASVKLSCKASGYTFTESIIHWVKQRSGQGLEWIGWFYPGSDNINYNEKFKDKATLTADKSSSTVYMELTRLTSEDSAVYFCASHEGPYVYFDYWGQGTTLTVSS
VL: DIVMTQSHKFMSTSVGDRVSITCKASQDVSTAVAWYQQKPGQSPKLLIYWTSTRHTGVPDRFTGSGSGTDYTLTISSVQAEDLALYYCQHHYSTPYTFGGGTKLEIQ
- binding result [2]: no binding (tested: 10 nM or 100 nM)

B7: TR94 cIgG (chimeric, human IgG1/kappa) (antibody, V domains shown)
VH: QVQLQQSGAELARPGTSVKLSCKASGYTFTSYWMQWVKQTPGQGLEWIGAIYPGDGDSRYIQKFKGKATLTADKSSSTAYMQLSSLASEDSAVYYCARDGNYYAMDYWGQGTSVTVSS
VL: QIVLTQSPAIMSASLGERVTITCTASSSVSSTYLHWYQQKPGSSPKLWIYSTSNLASGVPARFSGSGSGTSYSLTISSMEAEDAATYYCHQYHRSPPTFGAGTKLELK
- binding result [2]: no binding (tested: 10 nM or 100 nM)

B8: TR96 cIgG (chimeric, human IgG1/kappa) (antibody, V domains shown)
VH: EVQLQQSGAELVKPGASVKLSCTPSGFNIKDTYMHWVKQRPEQGLEWIGRIDPANGYTEYDPKFQDKATITADTSSNTAYLQLSSLTSEDTAVYYCADTQLYYWGQGTTLTVSS
VL: QIVLTQSPAIMSASLGERVTMTCTASSSVSSTYLHWYQQKPGSSPKLWIYSTSNLASGVPARFSGSGSGTSYSLTISNMEAEDAATYYCHQYHRSPLTFGAGTKLELK
- binding result [2]: no binding (tested: 10 nM or 100 nM)

B9: TR109 cIgG (chimeric, human IgG1/kappa) (antibody, V domains shown)
VH: QVQLKESGPGLVAPSQSLSITCTVSGFSLTVYGVNWVRQPPGKGLEWLGMIWGDGSTAYNSALKSRLTITKDNSKTQVFLKMNSLQTDDTARYYCARDGRRYALDYWGQGTSVTVSS
VL: DIVLTQSPTSLAVSLGQRATISCRASESVDSYGDSFLHWYQQKPGQPPILLIYRASNLDSGIPARFSGSGSRTDFTLTINPVEADDVATYYCQQSNEDPYTFGGGTKLEIK
- binding result [2]: no binding (tested: 10 nM or 100 nM)
